How the values were obtained:
[1] = biological target: KSS-1::Strep (C. tropicalis); assay: SEC-MALS; KSS-1::Strep–SKR-1 complex co-expressed in Sf9 and co-purified (StrepTrapXT ATP/Mg wash fraction, ResourceQ, Superdex 200 Increase 10/300 GL); 20 mM Tris pH 7.5, 150 mM NaCl; right-angle static light scattering

In the case of 3xFLAG::KSS-1 (natural protein), the half-life of KLMT-1::mNG (fluorescence time lapse of embryos) in kss-1(−) against kss-1(+) (KLMT-1 (C. tropicalis)) is reported as 2.9 fold.

SKR-1 (natural protein) gave a stoichiometry N [1] of 1.
